For assay [1], the target named is 2C TCR (transgenic T cell receptor of CD8+ 2C T cells) (mouse). Description: cell-based or functional assay.
Assay [2] deals with Pmel TCR (tumor-antigen gp-100 specific transgenic TCR of CD8+ Pmel T cells) (mouse). Description: cell-based or functional assay.

From patent US10463750 come the findings set out here.

With “1B2 (an anti-clonotypic 2C TCR-specific mAb; mouse IgG1 isotype) (antibody)”, in assay [1], the 1B2/CD19 specific re-direction lysis of T2 cells, pre-targeted protocol, 51Cr release fell in the range of 20 to 25%; the PKH26/67 double positive cell conjugates (2C/T2 conjugate formation) came to 19.5%; the re-directional specific lysis window of T2 cells (1B2/CD19 minus 1B2 beads), co-culture, E:T 1:1, 51Cr release amounted to 30%; the re-directional specific lysis window of T2 cells (1B2/CD19 minus 1B2 beads), co-culture, E:T 2:1, 51Cr release was found to be 20%. In assay [1], this substance returned a re-directional specific lysis window of T2 cells (1B2/CD19 minus 1B2 beads), co-culture, E:T 5:1, 51Cr release of 10% and a specific lysis of T2 cells, pre-targeted protocol (FIG. 4B), 51Cr release of 20%.

“GP 100 peptide loaded D^b-Ig dimer (from UniProt P61769 21-119) (peptide-MHC)”: in assay [2], the lysis of T2 cells, pre-targeted assay, E:T 10:1, 51Cr release was less than 40% and the re-directional specific lysis window (Db-gp100-Ig/CD19 against Db-gp100-Ig beads) stood at 5%.

In assay [1], “QL9 peptide loaded L^d-Ig dimer (from UniProt P61769 21-119) (peptide-MHC)” showed a lysis of T2 cells, pre-targeted assay, E:T 10:1, 51Cr release of less than 20% and a re-directional lysis specific window (Ld-QL9-Ig/CD19 against Ld-QL9-Ig beads) of less than 15%.
